Test results from article PMC10426277 (European journal of pharmacology, 2023).

What was measured:
Test in all cases: SPR
[1] = target: T1, Peroxiredoxin 1 mutant, last 22 amino acids of the C-terminus deleted (human, UniProt Q06830 1-177)
T1 sequence (looked up): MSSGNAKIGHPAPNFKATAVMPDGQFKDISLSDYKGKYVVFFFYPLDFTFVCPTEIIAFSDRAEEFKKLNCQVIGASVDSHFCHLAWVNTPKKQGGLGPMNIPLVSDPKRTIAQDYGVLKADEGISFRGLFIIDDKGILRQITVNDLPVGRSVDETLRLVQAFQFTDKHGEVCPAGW

[2] = target: T2, Peroxiredoxin 1 wildtype, recombinant full-length (human, UniProt Q06830 1-199)
T2 sequence (looked up): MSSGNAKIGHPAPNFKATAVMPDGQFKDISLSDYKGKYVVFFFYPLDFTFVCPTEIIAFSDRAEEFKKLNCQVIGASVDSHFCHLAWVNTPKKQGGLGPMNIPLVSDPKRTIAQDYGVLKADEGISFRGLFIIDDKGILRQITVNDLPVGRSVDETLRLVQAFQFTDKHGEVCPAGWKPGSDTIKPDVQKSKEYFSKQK

[3] = target: T3, Peroxiredoxin 4 mutant, C-terminal 22 amino acids deleted (human, UniProt Q13162 38-249)
T3 sequence (looked up): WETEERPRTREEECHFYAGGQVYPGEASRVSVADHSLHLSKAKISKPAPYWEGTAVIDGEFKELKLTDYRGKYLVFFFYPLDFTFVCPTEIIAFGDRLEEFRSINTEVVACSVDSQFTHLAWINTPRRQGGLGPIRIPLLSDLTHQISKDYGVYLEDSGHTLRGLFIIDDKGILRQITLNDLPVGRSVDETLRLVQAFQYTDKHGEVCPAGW

B1: Sulfiredoxin (Srx), recombinant full-length (enzyme)
chain: not shown
[1]
  Kd: 0.175 µM
  koff: 0.000444 s⁻¹
  kon: 2540 M⁻¹ s⁻¹
[2]
  Kd: 769 µM
  koff: 0.000532 s⁻¹
  kon: 0.693 M⁻¹ s⁻¹
[3]
  Kd: 29.7 µM
  koff: 0.00269 s⁻¹
  kon: 90.4 M⁻¹ s⁻¹
